From patent US20220348651A1, “ENTPD2 ANTIBODIES, COMBINATION THERAPIES, AND METHODS OF USING THE ANTIBODIES AND COMBINATION THERAPIES” (Novartis AG, priority 2019, published 2022) come the findings set out here.

Test [1] has as its system B16LM3 tumor model. In words: Syngeneic B16LM3 tumor model, combination with anti-PD-1 Ab. It counts as in vivo, C57BL/6 mice. Particulars: mAb13 15 mg/kg in combination with anti-PD-1 Ab 10 mg/kg i.p., days 1, 5, 8, 12, 15; relative to No Treatment, Isotype Control or anti-PD-1 Ab. How it is done:
B16LM3 model was established in female C57BL/6 mice by subcutaneous injection of 0.5×10^6 cells into the right flank of each mouse. The day after implant mice were randomized into treatment groups (n=10 per group). Mice received treatments of either anti-mouse ENTPD2 mAb13 or a non-specific mIgG2a isotype control (clone MOPC-173, BioLegend, San Diego, Calif.) at a final dose 15 mg/kg on Day 1, 5, 8, 12, 15.
Anti-PD-1 Ab (clone RMP1-14 Bio X Cell, West Lebanon, N.H.) or non-specific rIgG2a isotype control (clone RTK2758, BioLegend, San Diego, Calif.) were delivered i.p. at a final dose of 10 mg/kg on days 1, 5, 8, 12, 15. All doses were adjusted to individual mouse body weights.

Test [2] concerns the target T1, mouse ENTPD2 (Mus musculus, UniProt O55026).
T1 construct: residues 29-462 of mouse or rat ENTPD2 (the extracellular domain); mouse IgK signal peptide (N); His6; made in house; host or cells: FreeStyle 293-F cells, transient transfection
T1 sequence (O55026 29-462): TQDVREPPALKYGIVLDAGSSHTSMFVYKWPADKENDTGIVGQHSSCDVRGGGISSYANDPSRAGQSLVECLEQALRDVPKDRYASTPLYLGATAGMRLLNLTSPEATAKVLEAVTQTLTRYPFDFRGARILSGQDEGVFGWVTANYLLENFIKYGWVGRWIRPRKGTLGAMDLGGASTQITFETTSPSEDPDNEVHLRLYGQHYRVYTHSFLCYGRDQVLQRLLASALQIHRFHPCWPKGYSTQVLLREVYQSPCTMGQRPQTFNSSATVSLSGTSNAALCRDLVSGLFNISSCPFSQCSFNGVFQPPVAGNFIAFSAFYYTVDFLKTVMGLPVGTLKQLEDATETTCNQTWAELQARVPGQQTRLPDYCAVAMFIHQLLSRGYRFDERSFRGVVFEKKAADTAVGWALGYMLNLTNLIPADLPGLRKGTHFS
In words: Antibody specificity: binding to mouse ENTPD2. Particulars: Mouse ENTPD2. The text has this:
Antibody specificity for mAbl-mAblO was confirmed. […] Antibodies mAb8, mAb9, and mAb10 show weak affinity to mouse ENTPD2. None of the selected antibodies bind to rat ENTPD2.

The target of test [3] is T2, RKO cells (Homo sapiens, UniProt Q9Y5L3).
T2 construct: colorectal cancer cells with endogenous ENTPD2 expression; host or cells: RKO
T2 sequence (Q9Y5L3 1-495): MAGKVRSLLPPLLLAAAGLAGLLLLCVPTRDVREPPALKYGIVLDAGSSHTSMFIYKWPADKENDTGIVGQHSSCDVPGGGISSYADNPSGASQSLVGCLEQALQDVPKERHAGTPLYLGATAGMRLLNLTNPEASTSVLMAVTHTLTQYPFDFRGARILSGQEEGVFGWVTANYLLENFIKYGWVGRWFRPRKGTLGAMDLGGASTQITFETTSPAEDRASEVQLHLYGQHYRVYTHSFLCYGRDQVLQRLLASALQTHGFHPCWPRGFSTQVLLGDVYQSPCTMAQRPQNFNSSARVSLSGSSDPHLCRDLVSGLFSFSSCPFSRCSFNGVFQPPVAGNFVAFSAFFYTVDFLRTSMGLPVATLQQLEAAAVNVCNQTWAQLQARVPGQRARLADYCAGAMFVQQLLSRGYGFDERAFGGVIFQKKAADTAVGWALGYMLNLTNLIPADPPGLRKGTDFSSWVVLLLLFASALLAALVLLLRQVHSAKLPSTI
The test can be described thus: FACS binding to RKO cells with endogenous ENTPD2. Particulars: read-out: Apparent FACS Affinity. How it is done:
FACS screening: Specific binding of candidate antibodies to endogenously expressed ENTPD2 was assessed by flow cytometry. Cells were rinsed thoroughly with 1×PBS and treated with Accutase (Millipore #SCR005) to lift from growth plates and resuspended at approximately 1×10^5 cells/90 μL in 1× FACS buffer (2% FBS+0.1% NaN3 in PBS). In a 96-well U-bottom plate, 10 μL of 10× antibody solution in FACS buffer was pre-seeded and 90 μL of cell suspension was added. Cell were incubated for 30 minutes at 4° C., washed 1× with cold PBS and resuspended in 100 μL of 1:500 secondary antibody 1× FACS buffer (Allophycocyanin conjugated F(ab′)2 goat anti-human IgG, Fcγ specific; Jackson Immunoresearch, Cat#109-136-098). After additional incubation for 15 min at 4° C., cells were washed twice with PBS and resuspended in 100 μL of 1×FACS buffer with 4 μg/mL propidium iodide (Life Technologies, Cat#P3566). Geometric mean fluorescence intensity was calculated on live single cells using FlowJo software.
(In flow cytometry, cells or beads pass a laser one at a time.)

For test [4], the target named is cynomologus (cyno) ENTPD2. The test can be described thus: Biacore (SPR) affinity to cyno ENTPD2 ECD. Particulars: 25° C. It counts as binding, cynomolgus monkey. How it is done: Biacore Screening: Affinity was measured by determining the kinetic rate constants using surface plasmon resonance (SPR) on a Biacore T200 or T100 with the T200 sensitivity upgrade instrument (Biacore, GE Healthcare). Antibodies were captured on CM5 sensor chips (Biacore, GE Healthcare) prepared with a mouse anti-human IgG Fc antibody (ThermoFisher catalogue #05-4200) amine coupled to the surface. […] ENTPD2 analytes were allowed to associate for 180 s and dissociate for up to 1800 s depending on the off-rate of the antibody at a flow rate of 30 μL/min. The running buffer was PBS pH 7.2 (prepared from a Corning 10X stock, cat#46-013-CM)+0.05% Tween 20. Regeneration was accomplished with 30 s injections of 3 or 4 M MgCl2 to remove all the captured antibody and remaining complex from the surface, after which fresh antibody was captured. The raw data were analyzed using Biacore T200 Evaluation Software version 1.0 and fit to a 1:1 binding model, with all parameters set to fit globally except for RI, which was set to fit locally.
On the technique in general: Surface plasmon resonance follows binding to a sensor surface in real time, without labels.

Chain of cynomologus (cyno) ENTPD2 (as listed by the source): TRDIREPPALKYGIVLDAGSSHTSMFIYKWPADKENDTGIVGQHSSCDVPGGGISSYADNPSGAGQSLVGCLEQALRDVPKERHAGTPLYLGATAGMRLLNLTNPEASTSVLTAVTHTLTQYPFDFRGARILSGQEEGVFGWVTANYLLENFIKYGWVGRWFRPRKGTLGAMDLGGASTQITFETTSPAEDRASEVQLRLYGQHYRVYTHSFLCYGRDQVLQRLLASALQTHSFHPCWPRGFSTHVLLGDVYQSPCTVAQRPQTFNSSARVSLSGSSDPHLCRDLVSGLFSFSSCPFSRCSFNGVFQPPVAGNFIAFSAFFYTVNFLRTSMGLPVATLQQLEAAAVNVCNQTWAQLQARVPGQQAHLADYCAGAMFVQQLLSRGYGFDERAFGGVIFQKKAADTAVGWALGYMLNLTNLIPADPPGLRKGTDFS

B1: mAb13: anti-mouse ENTPD2 antibody; HC SEQ ID NO: 193, LC SEQ ID NO: 204 (antibody)
heavy: QVQLVQSGAELKQPGQSVKISCKASGYTFTHYGMNWVKQAPGQGLKWMGWINTDTGNPTYADDFKGRFVFSLDTSVSTAYLQISNLKNEDTATYYCVRYGTLYSGYGFFFDSWGQGTLVTVSSAKTTAPSVYPLAPVCGDTTGSSVTLGCLVKGYFPEPVTLTWNSGSLSSGVHTFPAVLQSDLYTLSSSVTVTSSTWPSQSITCNVAHPASSTKVDKKIEPRGPTIKPCPPCKCPAPNLLGGPSVFIFPPKIKDVLMISLSPIVTCVVVDVSEDDPDVQISWFVNNVEVHTAQTQTHREDYNSTLRVVSALPIQHQDWMSGKEFKCKVNNKDLPAPIERTISKPKGSVRAPQVYVLPPPEEEMTKKQVTLTCMVTDFMPEDIYVEWTNNGKTELNYKNTEPVLDSDGSYFMYSKLRVEKKNWVERNSYSCSVVHEGLHNHHTTKSFSRTPGK
light: DIMMTQSPSSLSVSAGEKATITCKSSQSLFNSNTNKNYLNWYLQKPGQSPKLLFYYASTRHTGVPDRFIGSGSGTDFTLTITSVQDEDLADYYCQQWYSYPWTFGPGTKLEIKRADAAPTVSIFPPSSEQLTSGGASVVCFLNNFYPKDINVKWKIDGSERQNGVLNSWTDQDSKDSTYSMSSTLTLTKDEYERHNSYTCEATHKTSTSPIVKSFNRNEC
Consider B1, for which the mouse survival result in test [1] is reported as “significantly extended mouse survival”.

B2: mAb7: humanized anti-human ENTPD2 antibody from mAb17; VH SEQ ID NO: 25, VL SEQ ID NO: 78 (antibody, V domains shown)
VH: QVQLVQSGAEVVKPGASVKISCKASGYTFTDYNMDWVKQAPGQRLEWIGDINPKYDISTYNQQFKGKATITVDKSASTAYMELSSLRSEDTAVYYCARRGFFLYYGINYYYFDVWGQGTLVTVSS
VL: EIVLTQSPATLSASPGEEITLSCSASSSVSYIHWYQQKPGQAPRLLIYSTSNLASGIPARFSGSGSGTFYTLTISSVEPEDAAVYYCHQWSSYPWTFGGGTKLEIK
For orientation: Kd means the constant that tells how readily two partners part at equilibrium. Consider B2, for which, in test [2], the “BIACore KD” value was “No binding”. Also, in test [3], the EC50 amounted to 0.4 nM. In test [4], this molecule registered a Kd of 1.1 nM, a ka of 1.2e+06 M⁻¹ s⁻¹ and a kd of 0.0012 s⁻¹.
